Data from US20240108766A1 (Bayer, published 2024).

T1: human LRRC15 extracellular domain with C-terminal His tag (human, UniProt Q8TF66 22-538)
T1 construct: Recombinant, made in HEK293; the entry holds the extracellular domain and the His tag; SPR analyte; also called TPP-1545; hLRRC15 CT-His
T1 sequence: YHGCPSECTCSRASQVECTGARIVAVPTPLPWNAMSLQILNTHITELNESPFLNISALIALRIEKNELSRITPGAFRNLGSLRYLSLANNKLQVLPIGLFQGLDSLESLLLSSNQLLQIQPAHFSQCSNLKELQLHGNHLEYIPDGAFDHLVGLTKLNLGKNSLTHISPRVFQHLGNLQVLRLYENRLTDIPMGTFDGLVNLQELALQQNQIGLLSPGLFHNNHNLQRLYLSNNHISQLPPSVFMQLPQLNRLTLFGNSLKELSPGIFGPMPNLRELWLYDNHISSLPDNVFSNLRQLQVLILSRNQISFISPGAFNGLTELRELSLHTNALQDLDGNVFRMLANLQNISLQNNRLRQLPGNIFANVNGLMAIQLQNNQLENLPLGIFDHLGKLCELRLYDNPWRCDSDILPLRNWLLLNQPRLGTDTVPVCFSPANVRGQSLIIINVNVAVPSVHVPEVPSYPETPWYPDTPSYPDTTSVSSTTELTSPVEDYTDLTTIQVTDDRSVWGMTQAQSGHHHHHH

T2: cynomolgus (Macaca fascicularis) LRRC15 extracellular domain with C-terminal His tag (cynomolgus monkey (Macaca fascicularis), UniProt Q8TF66 22-538 (human entry))
T2 construct: Recombinant, made in HEK293; the entry holds the extracellular domain and the His tag; SPR analyte; also called TPP-9046
T2 chain: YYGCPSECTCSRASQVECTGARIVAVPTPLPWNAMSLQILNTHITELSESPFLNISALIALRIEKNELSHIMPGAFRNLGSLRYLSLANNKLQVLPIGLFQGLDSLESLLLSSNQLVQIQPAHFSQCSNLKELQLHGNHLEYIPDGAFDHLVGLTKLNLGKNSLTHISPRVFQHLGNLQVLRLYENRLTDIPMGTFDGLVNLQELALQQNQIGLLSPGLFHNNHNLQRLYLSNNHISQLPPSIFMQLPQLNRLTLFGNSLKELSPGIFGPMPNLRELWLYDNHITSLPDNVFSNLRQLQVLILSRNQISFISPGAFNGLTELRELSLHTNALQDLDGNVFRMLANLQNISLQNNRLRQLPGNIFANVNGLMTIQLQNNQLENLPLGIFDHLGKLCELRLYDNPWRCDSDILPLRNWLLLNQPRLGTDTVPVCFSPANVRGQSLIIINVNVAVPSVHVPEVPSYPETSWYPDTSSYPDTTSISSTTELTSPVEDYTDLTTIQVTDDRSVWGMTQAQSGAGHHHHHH


Assays:
[1] = target: T1, human LRRC15 extracellular domain with …; test: SPR at 10-37°C (Example 3)
Method: (§1) To assess if anti-LRRC-15 antibodies show a difference in binding at different temperatures, binding assays were conducted using surface plasmon resonance (SPR). Binding assays were performed on a Biacore T200 instrument at temperatures of 10° C., 20° C., 25° C. and 37° C. with assay buffer HBS EP+, 1 mg/ml BSA (bovine serum albumine), 300 mM NaCl, 0.05% NaN₃. Antibodies were captured via anti-human Fc IgGs covalently amine coupled to a CM5 sensor chip and human LRRC15 was used as an analyte in a concentration series from 1.56-200 nM in multi cycle kinetics mode. Pre-experiments were conducted to have an equal capture level at each temperature. Obtained sensorgrams were fitted to a 1:1 Langmuir binding model to derive kinetic data.

[2] = target: T1, human LRRC15 extracellular domain with …; test: calculated from SPR kd, 10°C
Method: as §1

[3] = target: T1, human LRRC15 extracellular domain with …; test: calculated from SPR kd, 37°C
Method: as §1

[4] = target: T1, human LRRC15 extracellular domain with …; test: SPR thermodynamics (van't Hoff/Eyring), 10-37°C
Method: as §1, with “Thermodynamics help to explain why an interaction is happening and what the driving forces for the interaction are. To” for “To”, “the thermodynamic parameters for anti-LRRC15” for “if anti-LRRC-15”, “antibodies” for “antibodies show a difference in binding at different temperatures,”, “BSA,” for “BSA (bovine serum albumine),”, “NaN3.” for “NaN₃.”, “data. Thermodynamic parameters were obtained using the integrated thermodynamics wizard in the Biacore T200 software. Van′t Hoff and Eyring plots were calculated and plotted and thermodynamic parameters were derived.” for “data.”

[5] = target: T1, human LRRC15 extracellular domain with …; test: SPR Biacore T200, antibody captured, LRRC15 analyte, 10°C
Method: as §1

[6] = target: T1, human LRRC15 extracellular domain with …; test: SPR Biacore T200, antibody captured, LRRC15 analyte, 25°C
Method: as §1

[7] = target: T1, human LRRC15 extracellular domain with …; test: SPR (Example 6), overview table, repeats Table 9; head prints [M^-1]
Method: (§2) To assess the binding kinetics and affinity of anti-LRRC15 antibodies as well as their species cross-reactivity profile, binding assays were conducted using surface plasmon resonance (SPR). Binding assays were performed on a Biacore T200 instrument at 25° C. using assay buffer HBS EP+, 1 mg/ml BSA, 300 mM NaCl, 0.05% NaN3. Antibodies were captured via anti-human Fc IgGs covalently amine coupled to a CM5 sensor chip and human, mouse and cynomolgus LRRC15 were used as analytes in a concentration series from 1.56-200 nM in multi cycle kinetics mode. […] Obtained sensorgrams were fitted to a 1:1 Langmuir binding model to derive kinetic data.

[8] = target: T2, cynomolgus (Macaca fascicularis) LRRC15 …; test: as above
Method: as §2

[9] = target: T1, human LRRC15 extracellular domain with …; test: SPR Biacore T200, antibody captured, LRRC15 analyte, 20°C
Method: as §1

Row | Temperature dependent loss in binding affinity [1] [fold] | Complex Half Life [2] [h] | Complex Half Life [3] [h] | -TΔS [4] [kcal/mol] | ΔG^0 [4] [kcal/mol] | ΔH^0 [4] [kcal/mol] | Kd [5] [nM] | Kd [6] [nM] | Kd [7] [nM] | Kd [8] [nM] | Kd [9] [nM] | Binder
1 | 13.8 | 0.963 | 0.0267 | 6.69 | -10.5 | -17 | 5.2 | 21 | 25 | 36 |  | TPP-12942 (antibody, human IgG1, kappa, V domains shown, Prior art humanized IgG1 kappa antibody, used as comparator; also called huM25; huM25-hIgG1Kappa) VH: EVQLVQSGAEVKKPGASVKVSCKASGYKFSSYWIEWVKQAPGQGLEWIGEILPGSDTTNYNEKFKDRATFTSDTSINTAYMELSRLRSDDTAVYYCARDRGNYRAWFGYWGQGTLVTVSS VL: DIQMTQSPSSLSASVGDRVTITCRASQDISNYLNWYQQKPGGAVKFLIYYTSRLHSGVPSRFSGSGSGTDYTLTISSLQPEDFATYFCQQGEALPWTFGGGTKVEIKR
2 | 5.2 | 9.63 | 1.07 | -1.82 | -12.2 | -10.5 | 0.46 | 0.88 | 0.96 | 0.91 | 0.82 | TPP-17421 (antibody, human IgG1, kappa, V domains shown, also called 438H-M306-C11-hIgG1Kappa) VH: EVQLVQSGAEVKKPGASVKVSCKASGYKFSSYWIEWVKQAPGQGLEWIGEILPGSDWTNYNEKFKDRATFTSDTSINTAYMELSRLRSDDTAVYYCARDRGNYRAWFQYWGQGTLVTVSS VL: DIQMTQSPSSLSASVGDRVTITCRASQSISSYLNWYQQKPGGAPKFLIYYASSLQSGVPSRFSGSGSGTDYTLTISSLQPEDFATYYCQQGLELPWTFGGGTKVEIKR
3 | 30.9 | 14.8 | 0.292 | 10.3 | -12 | -22.2 | 0.32 | 1.6 | 1.7 | 1.8 | 0.88 | TPP-17078 (antibody, human IgG1, kappa, V domains shown, also called 438H-M308-H05-hIgGkappa) VH: EVQLVQSGAEVKKPGASVKVSCKASGYKFSSYWIEWVKQAPGQGLEWIGEILPGSDTTNYNEKFKDRATFTSDTSINTAYMELSRLRSDDTAVYYCARDRGNYRAWFGYWGQGTLVTVSS VL: DIQMTQSPSSLSASVGDRVTITCRASQSISSYLNWYQQKPGGAPKFLIYYASSLQSGVPSRFSGSGSGTDYTLTISSLQPEDFATYYCQQGFSLPWTFGGGTKVEIKR
4 | 108 | 1.6 | 0.01 | 19.4 | -11.2 | -31.1 | 0.61 | 5.4 | 5.9 | 9 | 2 | TPP-14389 (antibody, human IgG1, kappa, V domains shown, also called 13612-rec02-hIgG1Kappa) VH: EVQLLESGGGLVQPGGSLRLSCAASGFTFSGYMMSWVRQAPGKGLEWVSGIYPSPGYTYYADSVKGRFTISRDNSKNTLYLQMNSLRAEDTAVYYCAREKASDLFGSYSEALDYWGQGTLVTVSS VL: DIQMTQSPDSLSASVGDRVTITCRASQDVGSWLAWYQQKPGKAPKLLIFAASSLESGIPSRFSGSGSGTDFTLTISSLQPEDFATYYCQQANGFPLTFGGGTKVEIKR
